Experiment [1] concerns the target T1, human CCR8 (human, UniProt P51685 1-355).
T1 construct: also called hCCR8; hCCR8_P51685
Description: flow cytometry, HUT78 cells (endogenous CCR8). The procedure:
The same staining protocol was applied on human CCR8 transfected CHO cell line versus wild type CHO cell line, cutaneous T cell lymphoma HUT78 cell line and human activated T cell model.
Briefly, 1·10⁵ cells per well in a 96 well plate were incubated with a dilution of unconjugated anti-CCR8 mAb at 10 μg/mL then diluted at 1/3.33, 4 dilution points (during 30 min at 4° C.). In human activated T cells model, prior to mAb incubation, cells were first incubated with 200 nM of hCCL1 (R&D Systems, Minneapolis, MN, USA) or buffer PBS (Invitrogen by Thermofisher Scientific, Illkirch-Graffenstaden, France) supplemented by 2% Fetal Bovine Serum (Invitrogen by Thermofisher Scientific, Illkirch-Graffenstaden, France) and 2 mM EDTA (Invitrogen by Thermofisher Scientific, Illkirch-Graffenstaden, France) during 1 hour at 4° C. To determine EC50 value, 8 concentrations of anti-CCR8 mAb were tested. Unbound antibodies were washed away with PBS (Invitrogen by Thermofisher Scientific, Illkirch-Graffenstaden, France) supplemented by 2% Fetal Bovine Serum (Invitrogen by Thermofisher Scientific, Illkirch-Graffenstaden, France) and 2 mM EDTA (Invitrogen by Thermofisher Scientific, Illkirch-Graffenstaden, France). Subsequently, cells are centrifuged (5 min at 400 g) and bound antibody is detected with F(ab′)₂-Goat anti-Mouse IgG (H+L) Cross-Adsorbed Secondary Antibody, Alexa Fluor 488 (dilution 1/500) (Invitrogen by Thermofisher Scientific, Illkirch-Graffenstaden, France) or with F(ab′)₂-Goat anti-Human IgG Fc Secondary Antibody, PE (Invitrogen by Thermofisher Scientific, Illkirch-Graffenstaden, France) (dilution 1/1000) at 4° C. for 30 min. Detection reagent is washed away and cells are centrifuged (5 min at 400 g) and resuspended in 30 μL PBS. Bound detection antibody is quantified on a MacsQuant16 (Miltenyi, Gladbach, Germany) (B1 or B2 channel, 5000 events per acquisition). During the experiment, the respective isotype mAb controls (mouse IgG1, mouse IgG2a, mouse IgG2b, mouse IgG3 or human IgG1) (Biolegend, Amsterdam, The Netherlands) are included to exclude any unspecific binding events.
EC50 values were determined via nonlinear fit “log(agonist)vs.response−Variable slope (four parameters)” function of Graphpad prism. EC50 values were not constantly determined in the same experiments.

Experiment [2] addresses pm4, modified CCR8 related peptide (human, sulfated tyrosines at Y15 and Y16). Description: ELISA on coated CCR8 peptide (500 ng/mL), OD [cont.]. The procedure: (§1) The specific binding properties of antibodies were evaluated by ELISA with coated CCR8 related peptides (500 ng/mL) in carbonate/bicarbonate buffer. Different peptides were used as described in Table 1 (see Example 1). Each anti-CCR8 mAb was tested at 1 μg/mL then diluted at 1/10. After an incubation at room temperature during 90 min, unbound mAbs were removed by washings. […] After washings, 3,3′,5,5′-tetramethylbenzidine (TMB) (Interchim, Montlugon, France) was added for 15 min. Then the optical density (OD) was determined by using a multiplate reader (Tecan, Lyon, France) and correlated with mAb reactivity on the panel of coated peptides.

The target in experiment [3] is pm8, modified CCR8 related peptide (human, sulfated tyrosines at Y15, Y16 and Y17). The experiment is described as above. The procedure: as §1
Experiment [4] deals with pm3, modified CCR8 related peptide (human, sulfated tyrosine at Y17). The experiment is described as above. The procedure: as §1
The target in experiment [5] is pm2, modified CCR8 related peptide (human, sulfated tyrosine at Y16). The experiment is described as above. The procedure: as §1
Experiment [6] concerns the target T2, pwt1, unmodified CCR8 related peptide (human, none (non-sulfated Y15, Y16, Y17)).
T2 construct: First 34 amino acids of human CCR8, synthetic; also called unmodified peptide
The description is as above. On the procedure: as §1

In experiment [7] the target is pm5, modified CCR8 related peptide (human, sulfated tyrosines at Y15 and Y17). The description is as above. On the procedure: as §1
In experiment [8] the target is pm6, modified CCR8 related peptide (human, sulfated tyrosines at Y16 and Y17). The description is as above. On the procedure: as §1
The target of experiment [9] is pm1, modified CCR8 related peptide (human, sulfated tyrosine at Y15). The description is as above. The procedure:
as §1

The target in experiment [10] is T1, human CCR8. Description: cell-based or functional assay.
Experiment [11] deals with T1, human CCR8. Description: cell-based or functional assay. The source holds these as a separate data set.
Experiment [12] addresses T3, hCCR8 SNAP-tag (human, UniProt P51685 1-355, SNAP-tag labelled with Lumi4-Terbium).
T3 construct: also called human CCR8 engineered with a SNAP-tag at the N-terminus; not shown: SNAP-tag at the N-terminus
Description: HTRF Tag-lite, inhibition of hCCL1-AF647 binding to SNAP-tag hCCR8 on HEK-293. On the procedure: The inhibition of CCL1 binding to hCCR8 was evaluated with the Tag-Lite® technology from Cisbio (Revvity). Human CCR8 is engineered with a SNAP-tag at the N-terminus of the GPCR. hCCR8 SNAP-tag is transiently transfected on HEK-293 cell line using FuGene® (Promega, Madison, WI, USA). 48 hours after transfection, cells are labeled with the substrate Lumi4-Terbium® (Cisbio, Codolet, France) which covalently reacts with the SNAP-tag, for 1 h at 37° C. […] The Kd is previously obtained in a saturation binding assay on the same cells. […] The plate is next incubated at 21° C. for 2 h. Detection of HTRF signal is performed on the multiplate reader EnVision (PerkinElmer, Waltham, MA, USA). The HTRF (665/620) ratio is calculated by EnVision software, the data exported are considered as the total binding. The specific binding is calculated then by subtracting the non-specific signal from the total binding. The Ki and IC₅₀are calculated using the “One site—Fit Ki” and “One site—FitlogIC50” from GraphPad Prism 9 (Graphpad Software, San Diego, CA, USA), respectively.
On the technique in general: TR-FRET usually uses a lanthanide donor and a delayed reading to cut background.

The target in experiment [13] is T3, hCCR8 SNAP-tag. Description: cell-based or functional assay.
The target in experiment [14] is T1, human CCR8. The experiment is described as follows: cell-based or functional assay. The source holds these as a separate data set.

Changes are numbered by the printed parent chain. Values joined by “and” are separate entries in the source; they are usually repeats but may differ in a detail not shown here. Equal values may be shown once.

Broadly, the IC50 is the concentration needed to halve the response being measured. Low values mean greater potency, high ones weaker potency. For orientation: Ki means a dissociation constant, usually derived from enzyme kinetics or from competition with a known ligand. A low value points to tighter binding. Broadly, the EC50 is the concentration needed to bring the measured effect to its halfway point.

pm2, modified CCR8 related peptide (human, sulfated tyrosine at Y16), sequence (peptide, as listed by the source): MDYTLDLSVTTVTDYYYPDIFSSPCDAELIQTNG
pm6, modified CCR8 related peptide (human, sulfated tyrosines at Y16 and Y17), sequence (peptide, as listed by the source): as above
pm4, modified CCR8 related peptide (human, sulfated tyrosines at Y15 and Y16), sequence (peptide, as listed by the source): as above
T2 sequence (peptide, as listed by the source): as above
pm5, modified CCR8 related peptide (human, sulfated tyrosines at Y15 and Y17), sequence (peptide, as listed by the source): as above
pm8, modified CCR8 related peptide (human, sulfated tyrosines at Y15, Y16 and Y17), sequence (peptide, as listed by the source): as above
pm3, modified CCR8 related peptide (human, sulfated tyrosine at Y17), sequence (peptide, as listed by the source): as above
pm1, modified CCR8 related peptide (human, sulfated tyrosine at Y15), sequence (peptide, as listed by the source): as above

B1: humanized anti-CCR8 mAb 2-12 (antibody, human IgG1, kappa)
heavy: not shown
light: DIVMTQAAPSLSVTPGESASISCTSSKSLLHSNGNTYLYWFLQKPGQSPQLLIYRMSNLASGVPDRFSGSGSGTAFTLKISRVEAEDVGVYYCMQHREYPFTFGSGTKLEIKRTVAAPSVFIFPPSDEQLKSGTASVVCLLNNFYPREAKVQWKVDNALQSGNSQESVTEQDSKDSTYSLSSTLTLSKADYEKHKVYACEVTHQGLSSPVTKSFNRGEC
notes: Humanized, human IgG1 / kappa, produced in CHO
As to B1, in the experiment with human CCR8 [1], the “% of labelled cells” value is 23%. Moreover, the binding result in experiment [2], in experiment [3], in experiment [4], in experiment [5], in experiment [6] and in experiment [7] was “binds” throughout. In addition, the binding result in experiment [8] and in [9] was “binds” each time. Further, the “hCCL1 (100 nM) residual response in %, Protocol #2, mAb 0.08 µg/mL ([…] nM)” value with human CCR8 [10] came to 62%. In the experiment with human CCR8 [10], the “hCCL1 (100 nM) residual response in %, Protocol #2, mAb 0.4 µg/mL (2.67 nM)” value is 38%. Besides, the “hCCL1 (100 nM) residual response in %, Protocol #2, mAb 10 µg/mL (66.7 nM)” value with human CCR8 [10] was found to be 30%. Also, in the experiment with human CCR8 [10], the “hCCL1 (100 nM) residual response in %, Protocol #3, mAb 0.05 µg/mL (0.33 nM)” value was found to be 94%. Further, the “hCCL1 (100 nM) residual response in %, Protocol #3, mAb 0.5 µg/mL (3.33 nM)” value in the experiment with human CCR8 [10] was 63%. Further, the “hCCL1 (100 nM) residual response in %, Protocol #3, mAb 5 µg/mL (33.3 nM)” value with human CCR8 [10] came out at 39%. Further, the “IC50, CCL1 induced hCCR8 Gi2 signaling (BRET, HEK-293)” value (“IC50 … (BRET, HEK-293)” below) in the experiment with human CCR8 [11] is 0.029 µg/mL and 0.194 nM. Besides, in the experiment with hCCR8 SNAP-tag [12], the IC50 stood at 0.09 µg/mL. In addition, the inhibition constant (Ki) with hCCR8 SNAP-tag [12] came to 0.05 µg/mL.

B2: humanized anti-CCR8 mAb 2-14 (antibody, human IgG1, kappa, V domains shown)
VH: QVQLVQSGPEVVKPGASVKVSCKTSGYTFTEYTIHWVRQAPGQSLEWVGGINPNNGNTRYDQKFQGRVTITRDKSASTAYMELRSLTSEDTAVYYCARVARSSGSGPYAMDYWGQGTTVTVSS
VL: DVVMTQSPLSLPVTLGDQASISCRCSQSLLHTNGDTYLHWYLQRPGQSPRLLIYKVSNRFSGVPDRFSGSGSGTDFTLKISRVEAEDVGVYFCSQSTHVPYTFGGGTKVEIKR
notes: Humanized, human IgG1 / kappa
Turning to B2, the “% of labelled cells” value with human CCR8 [1] is 96%. In the experiment with hCCR8 SNAP-tag [13], the “% of internalization at 1 µg/ml (CCL1 at 300 nM = 100%), HTRF” value came out at 44% and the “% of internalization at 10 µg/ml (CCL1 at 300 nM = 100%), HTRF” value stood at 29%. The binding result in experiment [2] is recorded as “binds”. Moreover, in experiment [3], the binding result is listed as “binds”. Further, the binding result in experiment [4] is recorded as “binds”. For the same molecule, the binding result in experiment [5] is reported as “binds”. The binding result in [6] was “binds”. Besides, the binding result in experiment [7] is on record as “binds”. In addition, in experiment [8], the binding result was “binds”. Besides, in [9], the binding result is recorded as “binds”. In the experiment with human CCR8 [10], the “hCCL1 (100 nM) residual response in %, Protocol #2, mAb 0.08 µg/mL ([…] nM)” value is 67%; the “hCCL1 (100 nM) residual response in %, Protocol #2, mAb 0.4 µg/mL (2.67 nM)” value worked out at 55%; the “hCCL1 (100 nM) residual response in %, Protocol #2, mAb 10 µg/mL (66.7 nM)” value came to 32%; the “hCCL1 (100 nM) residual response in %, Protocol #3, mAb 0.05 µg/mL (0.33 nM)” value was determined as 86%. In the experiment with human CCR8 [10], the “hCCL1 (100 nM) residual response in %, Protocol #3, mAb 0.5 µg/mL (3.33 nM)” value was found to be 60% and the “hCCL1 (100 nM) residual response in %, Protocol #3, mAb 5 µg/mL (33.3 nM)” value was 42%. Further, the “IC50 … (BRET, HEK-293)” value in the experiment with human CCR8 [11] is 0.022 µg/mL and 0.147 nM. In the experiment with hCCR8 SNAP-tag [12], the IC50 came out at 0.04 µg/mL and affinity was put at a Ki of 0.02 µg/mL. Moreover, in the experiment with human CCR8 [14], the “ADCC % Max lysis, HUT78 targets, NK cells Donor 3” value came out at 15%; the “ADCC % Max lysis, HUT78 targets, NK cells Donor 4” value came out at 16%; the “ADCC EC50, HUT78 targets, NK cells Donor 3” value is 0.505 nM; the “ADCC EC50, HUT78 targets, NK cells Donor 4” value came out at 0.573 nM.

B3: humanized anti-CCR8 mAb 2-15 (antibody, human IgG1, kappa, V domains shown)
VH: B2 VH with V5Q, A40S, P41H, Q65K, R72I, A76S
VL: B2 VL
notes: Humanized, human IgG1 / kappa
As to B3, in the experiment with human CCR8 [1], the “% of labelled cells” value amounted to 88% and the 50% effective concentration (EC50) is 0.2 nM. Further, in the experiment with hCCR8 SNAP-tag [13], the “% of internalization at 1 µg/ml (CCL1 at 300 nM = 100%), HTRF” value amounted to 44% and the “% of internalization at 10 µg/ml (CCL1 at 300 nM = 100%), HTRF” value is 36%. Also, the binding result in experiment [2] is recorded as “binds”. Further, the binding result in experiment [3] is on record as “binds”. In experiment [4], the binding result is given as “binds”. Besides, the binding result in [5] is listed as “binds”. In [6], the binding result is “binds”. In experiment [7], the binding result is reported as “binds”. In addition, in experiment [8], the binding result was “binds”. Besides, in experiment [9], the binding result is “binds”. In addition, in the experiment with human CCR8 [10], the “hCCL1 (100 nM) residual response in %, Protocol #2, mAb 0.08 µg/mL ([…] nM)” value came to 77%; the “hCCL1 (100 nM) residual response in %, Protocol #2, mAb 0.4 µg/mL (2.67 nM)” value worked out at 66%; the “hCCL1 (100 nM) residual response in %, Protocol #2, mAb 10 µg/mL (66.7 nM)” value was 41%; the “hCCL1 (100 nM) residual response in %, Protocol #3, mAb 0.05 µg/mL (0.33 nM)” value came to 73%. Further, in the experiment with human CCR8 [10], the “hCCL1 (100 nM) residual response in %, Protocol #3, mAb 0.5 µg/mL (3.33 nM)” value worked out at 52% and the “hCCL1 (100 nM) residual response in %, Protocol #3, mAb 5 µg/mL (33.3 nM)” value was determined as 37%. In addition, the “IC50 … (BRET, HEK-293)” value with human CCR8 [11] was 0.034 µg/mL and 0.227 nM. In the experiment with hCCR8 SNAP-tag [12], this molecule showed an IC50 of 0.04 µg/mL and a Ki of 0.02 µg/mL.

The values are drawn from patent US20260167731A1 (DOMAIN THERAPEUTICS, published 2026).
